Consider three sequences from the supplement of paper PMC6379048.

Holding throughout (assay): Kd (EC50 corrected by depletion factor)
One data set addresses HSP90AB2P (UniProt Q58FF8). Summed up: (§1)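 Free RNA oligos (0 nM to 30 μM) were pre-incubated with HEK293-FT lysate (2.5 mg protein/well) for 1 h at 4°C, followed by 30 min at 4°C with the same 5′-amino-C6 oligos coupled to NHS-Sepharose beads. Bound proteins were quantified by label-free LC-MS/MS and normalised to the control. EC50 was derived from a four-parameter log-logistic fit, and Kd was obtained by multiplying EC50 by a protein-dependent depletion factor.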

A further data set concerns the target T1, PARP12 (UniProt Q9H0J9).
T1 sequence: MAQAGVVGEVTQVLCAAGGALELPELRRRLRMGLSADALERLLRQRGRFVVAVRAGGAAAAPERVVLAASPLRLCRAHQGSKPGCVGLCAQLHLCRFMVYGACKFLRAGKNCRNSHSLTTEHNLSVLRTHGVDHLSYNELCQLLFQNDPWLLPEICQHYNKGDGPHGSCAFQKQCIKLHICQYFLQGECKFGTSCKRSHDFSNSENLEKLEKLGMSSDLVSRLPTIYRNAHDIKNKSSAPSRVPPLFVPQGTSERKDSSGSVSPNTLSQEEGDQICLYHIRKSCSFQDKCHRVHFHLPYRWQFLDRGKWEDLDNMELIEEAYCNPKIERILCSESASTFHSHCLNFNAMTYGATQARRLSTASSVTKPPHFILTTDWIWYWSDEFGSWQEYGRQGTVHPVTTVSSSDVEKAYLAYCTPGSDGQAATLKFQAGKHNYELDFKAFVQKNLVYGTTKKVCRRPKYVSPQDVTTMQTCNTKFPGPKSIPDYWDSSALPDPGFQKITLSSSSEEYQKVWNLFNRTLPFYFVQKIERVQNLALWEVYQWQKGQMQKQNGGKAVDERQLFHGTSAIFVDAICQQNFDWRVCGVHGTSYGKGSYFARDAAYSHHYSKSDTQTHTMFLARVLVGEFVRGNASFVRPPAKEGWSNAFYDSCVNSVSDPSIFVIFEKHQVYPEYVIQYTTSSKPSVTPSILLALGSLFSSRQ
The method, boiled down:
as §1

The target in the next data set is SF3B6 (UniProt Q9Y3B4). The method, boiled down: as §1
Chain of SF3B6 (Q9Y3B4 whole entry): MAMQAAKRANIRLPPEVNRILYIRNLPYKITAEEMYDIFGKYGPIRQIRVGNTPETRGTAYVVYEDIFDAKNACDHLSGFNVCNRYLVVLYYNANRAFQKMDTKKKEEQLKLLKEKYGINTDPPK
A further data set deals with T2, SRSF11 (UniProt Q05519).
T2 sequence: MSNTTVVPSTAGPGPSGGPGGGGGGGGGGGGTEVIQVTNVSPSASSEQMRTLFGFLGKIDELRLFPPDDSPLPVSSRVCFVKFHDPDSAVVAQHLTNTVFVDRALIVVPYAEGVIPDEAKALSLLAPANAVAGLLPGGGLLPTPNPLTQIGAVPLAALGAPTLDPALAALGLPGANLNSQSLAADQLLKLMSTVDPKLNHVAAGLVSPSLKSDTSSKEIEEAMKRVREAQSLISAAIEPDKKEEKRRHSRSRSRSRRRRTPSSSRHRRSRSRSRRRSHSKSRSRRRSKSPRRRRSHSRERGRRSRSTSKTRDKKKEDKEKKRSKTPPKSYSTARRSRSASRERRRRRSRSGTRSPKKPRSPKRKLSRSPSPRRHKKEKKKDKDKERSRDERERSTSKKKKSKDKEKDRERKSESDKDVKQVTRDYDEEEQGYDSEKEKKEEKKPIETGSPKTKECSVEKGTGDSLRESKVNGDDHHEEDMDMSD
Summed up:
as §1

A further data set deals with MRPL17 (UniProt Q9NRX2). Summed up: as §1
The target of another data set is RPS10 (UniProt P46783). Summed up: as §1
A further data set deals with T3, HNRNPM (UniProt P52272).
T3 sequence: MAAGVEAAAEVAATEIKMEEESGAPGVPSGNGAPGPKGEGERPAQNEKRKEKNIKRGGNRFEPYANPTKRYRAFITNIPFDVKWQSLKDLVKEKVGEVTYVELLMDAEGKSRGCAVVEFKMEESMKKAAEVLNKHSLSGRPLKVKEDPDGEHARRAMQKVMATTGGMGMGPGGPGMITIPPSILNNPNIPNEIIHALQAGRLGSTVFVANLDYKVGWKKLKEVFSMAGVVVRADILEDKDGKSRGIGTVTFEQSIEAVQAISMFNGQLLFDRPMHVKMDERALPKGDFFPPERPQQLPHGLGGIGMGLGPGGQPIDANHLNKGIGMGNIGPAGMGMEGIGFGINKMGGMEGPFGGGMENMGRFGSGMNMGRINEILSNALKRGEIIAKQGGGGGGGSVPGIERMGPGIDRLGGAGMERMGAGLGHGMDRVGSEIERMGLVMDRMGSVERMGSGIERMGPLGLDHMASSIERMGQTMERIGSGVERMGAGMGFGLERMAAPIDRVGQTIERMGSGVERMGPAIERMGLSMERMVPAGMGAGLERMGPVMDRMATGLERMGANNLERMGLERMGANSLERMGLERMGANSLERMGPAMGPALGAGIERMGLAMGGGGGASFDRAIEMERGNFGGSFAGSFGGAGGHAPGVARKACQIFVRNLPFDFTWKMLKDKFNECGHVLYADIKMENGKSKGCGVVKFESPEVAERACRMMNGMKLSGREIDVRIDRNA
The method, boiled down:
as §1

The next data set addresses MRPS23 (UniProt Q9Y3D9). Summed up:
as §1

A further data set deals with PPIE (UniProt Q9UNP9). The method, boiled down:
as §1

A further data set addresses T4, ZFP36L1 (UniProt Q07352).
T4 sequence: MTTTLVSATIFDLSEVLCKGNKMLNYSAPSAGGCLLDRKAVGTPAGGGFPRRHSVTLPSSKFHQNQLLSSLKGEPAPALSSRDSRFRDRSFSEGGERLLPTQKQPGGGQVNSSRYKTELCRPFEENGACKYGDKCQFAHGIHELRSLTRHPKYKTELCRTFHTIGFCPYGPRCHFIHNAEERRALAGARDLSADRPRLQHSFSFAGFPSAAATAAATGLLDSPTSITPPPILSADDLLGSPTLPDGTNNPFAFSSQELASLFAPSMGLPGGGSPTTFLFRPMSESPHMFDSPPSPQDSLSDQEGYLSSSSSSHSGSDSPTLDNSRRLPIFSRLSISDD
Summed up: as §1

Chain of PPIE (Q9UNP9 whole entry): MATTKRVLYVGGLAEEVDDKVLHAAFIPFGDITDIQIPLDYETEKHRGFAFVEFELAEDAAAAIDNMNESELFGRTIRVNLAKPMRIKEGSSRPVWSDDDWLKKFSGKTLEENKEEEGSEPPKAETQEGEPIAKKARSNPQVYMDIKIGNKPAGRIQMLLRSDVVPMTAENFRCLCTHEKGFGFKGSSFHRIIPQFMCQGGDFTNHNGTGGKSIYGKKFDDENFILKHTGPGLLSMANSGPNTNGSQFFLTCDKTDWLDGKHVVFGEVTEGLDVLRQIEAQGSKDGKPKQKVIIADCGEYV
Chain of HSP90AB2P (Q58FF8 whole entry): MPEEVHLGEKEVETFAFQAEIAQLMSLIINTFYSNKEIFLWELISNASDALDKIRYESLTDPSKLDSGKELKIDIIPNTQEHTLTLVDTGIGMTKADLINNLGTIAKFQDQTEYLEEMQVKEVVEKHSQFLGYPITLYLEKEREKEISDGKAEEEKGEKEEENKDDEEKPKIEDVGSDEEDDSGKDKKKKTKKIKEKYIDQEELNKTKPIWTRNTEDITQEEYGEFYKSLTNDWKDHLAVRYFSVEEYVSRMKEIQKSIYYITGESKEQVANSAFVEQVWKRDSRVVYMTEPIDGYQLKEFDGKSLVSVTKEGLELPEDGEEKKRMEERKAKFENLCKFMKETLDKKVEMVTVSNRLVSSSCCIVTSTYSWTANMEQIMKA

As usually defined, the Kd is the constant that tells how readily two partners part at equilibrium. Higher therefore signals lower affinity. For the sequence AAUAAA, the Kd stood at 108 nM in the data set with HSP90AB2P, 5400 nM in the data set with PARP12, 2270 nM with SF3B6 and 126 nM with SRSF11.
With CUGUCCU, the dissociation constant (Kd) with MRPL17 is 20.4 nM; with RPS10, 116 nM.
Consider UAUUUAU, for which the Kd is 4410 nM with HNRNPM, 15.6 nM in the data set with MRPS23, 205 nM in the data set with PPIE and 24.4 nM in the data set with ZFP36L1.
